According to patent US20210284734A1 (SYMPHOGEN A S, published 2021):

Assays:
Experiment in all cases: SPR, Fab on captured PD-1-Fc;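 further: Alanine-scan PD-1 Fc fusions expressed transiently in ExpiCHO, captured on anti-human IgG Fc surface in IBIS MX96, anti-PD-1 Fab association 15 min, dissociation 30 min, Langmuir 1:1 fit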
human PD-1 ECD-Fc D92A = target: T1, human PD-1 ECD-Fc D92A (human, UniProt Q15116 21-170)
T1 construct: not shown: human IgG1 Fc, residues P101-K330

human PD-1 ECD-Fc P101A = target: T2, human PD-1 ECD-Fc P101A (human, UniProt Q15116 21-170)
T2 construct: not shown: human IgG1 Fc, residues P101-K330

human PD-1 ECD-Fc N102A = target: T3, human PD-1 ECD-Fc N102A (human, UniProt Q15116 21-170)
T3 construct: not shown: human IgG1 Fc, residues P101-K330
T3 sequence (Q15116 21-170 N102A): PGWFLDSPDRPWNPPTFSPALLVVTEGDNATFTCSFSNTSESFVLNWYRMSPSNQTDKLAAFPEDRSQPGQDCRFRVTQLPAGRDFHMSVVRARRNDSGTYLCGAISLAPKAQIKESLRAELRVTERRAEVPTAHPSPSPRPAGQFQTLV

human PD-1 ECD-Fc G119A = target: T4, human PD-1 ECD-Fc G119A (human, UniProt Q15116 21-170)
T4 construct: not shown: human IgG1 Fc, residues P101-K330
T4 sequence (Q15116 21-170 G119A): as the sequence (Q15116 21-170 N102A) above, with A82N, G99A counted along it

human PD-1 ECD-Fc L128A = target: T5, human PD-1 ECD-Fc L128A (human, UniProt Q15116 21-170)
T5 construct: not shown: human IgG1 Fc, residues P101-K330

human PD-1 ECD-Fc P130A = target: T6, human PD-1 ECD-Fc P130A (human, UniProt Q15116 21-170)
T6 construct: not shown: human IgG1 Fc, residues P101-K330
T6 sequence (Q15116 21-170 P130A): as the sequence (Q15116 21-170 N102A) above, with A82N, P110A counted along it

human PD-1 ECD-Fc A132G = target: T7, human PD-1 ECD-Fc A132G (human, UniProt Q15116 21-170)
T7 construct: not shown: human IgG1 Fc, residues P101-K330
T7 sequence (Q15116 21-170 A132G): as the sequence (Q15116 21-170 N102A) above, with A82N, A112G counted along it

human PD-1 ECD-Fc Q133A = target: T8, human PD-1 ECD-Fc Q133A (human, UniProt Q15116 21-170)
T8 construct: not shown: human IgG1 Fc, residues P101-K330
T8 sequence (Q15116 21-170 Q133A): as the sequence (Q15116 21-170 N102A) above, with A82N, Q113A counted along it

human PD-1 ECD-Fc E136A = target: T9, human PD-1 ECD-Fc E136A (human, UniProt Q15116 21-170)
T9 construct: not shown: human IgG1 Fc, residues P101-K330
T9 sequence (Q15116 21-170 E136A): as the sequence (Q15116 21-170 N102A) above, with A82N, E116A counted along it

human PD-1 ECD-Fc L138A = target: T10, human PD-1 ECD-Fc L138A (human, UniProt Q15116 21-170)
T10 construct: not shown: human IgG1 Fc, residues P101-K330

human PD-1 ECD-Fc T145A = target: T11, human PD-1 ECD-Fc T145A (human, UniProt Q15116 21-170)
T11 construct: not shown: human IgG1 Fc, residues P101-K330

human PD-1 ECD-Fc E150A = target: T12, human PD-1 ECD-Fc E150A (human, UniProt Q15116 21-170)
T12 construct: not shown: human IgG1 Fc, residues P101-K330
T12 sequence (Q15116 21-170 E150A): as the sequence (Q15116 21-170 N102A) above, with A82N, E130A counted along it

human PD-1 ECD-Fc P152A = target: T13, human PD-1 ECD-Fc P152A (human, UniProt Q15116 21-170)
T13 construct: not shown: human IgG1 Fc, residues P101-K330
T13 sequence (Q15116 21-170 P152A): as the sequence (Q15116 21-170 N102A) above, with A82N, P132A counted along it

human PD-1 ECD-Fc T153A = target: T14, human PD-1 ECD-Fc T153A (human, UniProt Q15116 21-170)
T14 construct: not shown: human IgG1 Fc, residues P101-K330
T14 sequence (Q15116 21-170 T153A): as the sequence (Q15116 21-170 N102A) above, with A82N, T133A counted along it

human PD-1 ECD-Fc H155A = target: T15, human PD-1 ECD-Fc H155A (human, UniProt Q15116 21-170)
T15 construct: not shown: human IgG1 Fc, residues P101-K330
T15 sequence (Q15116 21-170 H155A): as the sequence (Q15116 21-170 N102A) above, with A82N, H135A counted along it

human PD-1 ECD-Fc P28L = target: T16, human PD-1 ECD-Fc P28L (human, UniProt Q15116 21-170)
T16 construct: also called Rat mutation P28L; not shown: human IgG1 Fc, residues P101-K330
T16 sequence (Q15116 21-170 P28L): as the sequence (Q15116 21-170 N102A) above, with P8L, A82N counted along it

human PD-1 ECD-Fc S157R = target: T17, human PD-1 ECD-Fc S157R (human, UniProt Q15116 21-170)
T17 construct: also called Rat mutation S157R; not shown: human IgG1 Fc, residues P101-K330
T17 sequence (Q15116 21-170 S157R): as the sequence (Q15116 21-170 N102A) above, with A82N, S137R counted along it

human PD-1 ECD-Fc S27A = target: T18, human PD-1 ECD-Fc S27A (human, UniProt Q15116 21-170)
T18 construct: not shown: human IgG1 Fc, residues P101-K330
T18 sequence (Q15116 21-170 S27A): as the sequence (Q15116 21-170 N102A) above, with S7A, A82N counted along it

human PD-1 ECD-Fc N33A = target: T19, human PD-1 ECD-Fc N33A (human, UniProt Q15116 21-170)
T19 construct: not shown: human IgG1 Fc, residues P101-K330

human PD-1 ECD-Fc T36A = target: T20, human PD-1 ECD-Fc T36A (human, UniProt Q15116 21-170)
T20 construct: not shown: human IgG1 Fc, residues P101-K330
T20 sequence (Q15116 21-170 T36A): as the sequence (Q15116 21-170 N102A) above, with T16A, A82N counted along it

human PD-1 ECD-Fc L42A = target: T21, human PD-1 ECD-Fc L42A (human, UniProt Q15116 21-170)
T21 construct: not shown: human IgG1 Fc, residues P101-K330
T21 sequence (Q15116 21-170 L42A): as the sequence (Q15116 21-170 N102A) above, with L22A, A82N counted along it

human PD-1 ECD-Fc N49A = target: T22, human PD-1 ECD-Fc N49A (human, UniProt Q15116 21-170)
T22 construct: not shown: human IgG1 Fc, residues P101-K330
T22 sequence (Q15116 21-170 N49A): as the sequence (Q15116 21-170 N102A) above, with N29A, A82N counted along it

human PD-1 ECD-Fc A50G = target: T23, human PD-1 ECD-Fc A50G (human, UniProt Q15116 21-170)
T23 construct: not shown: human IgG1 Fc, residues P101-K330

human PD-1 ECD-Fc T59A = target: T24, human PD-1 ECD-Fc T59A (human, UniProt Q15116 21-170)
T24 construct: not shown: human IgG1 Fc, residues P101-K330
T24 sequence (Q15116 21-170 T59A): as the sequence (Q15116 21-170 N102A) above, with T39A, A82N counted along it

human PD-1 ECD-Fc S60A = target: T25, human PD-1 ECD-Fc S60A (human, UniProt Q15116 21-170)
T25 construct: not shown: human IgG1 Fc, residues P101-K330
T25 sequence (Q15116 21-170 S60A): as the sequence (Q15116 21-170 N102A) above, with S40A, A82N counted along it

human PD-1 ECD-Fc E61A = target: T26, human PD-1 ECD-Fc E61A (human, UniProt Q15116 21-170)
T26 construct: not shown: human IgG1 Fc, residues P101-K330
T26 sequence (Q15116 21-170 E61A): as the sequence (Q15116 21-170 N102A) above, with E41A, A82N counted along it

human PD-1 ECD-Fc P72A = target: T27, human PD-1 ECD-Fc P72A (human, UniProt Q15116 21-170)
T27 construct: not shown: human IgG1 Fc, residues P101-K330
T27 sequence (Q15116 21-170 P72A): as the sequence (Q15116 21-170 N102A) above, with P52A, A82N counted along it

human PD-1 ECD-Fc T76A = target: T28, human PD-1 ECD-Fc T76A (human, UniProt Q15116 21-170)
T28 construct: not shown: human IgG1 Fc, residues P101-K330
T28 sequence (Q15116 21-170 T76A): as the sequence (Q15116 21-170 N102A) above, with T56A, A82N counted along it

human PD-1 ECD-Fc K78A = target: T29, human PD-1 ECD-Fc K78A (human, UniProt Q15116 21-170)
T29 construct: not shown: human IgG1 Fc, residues P101-K330
T29 sequence (Q15116 21-170 K78A): as the sequence (Q15116 21-170 N102A) above, with K58A, A82N counted along it

human PD-1 ECD-Fc D85A = target: T30, human PD-1 ECD-Fc D85A (human, UniProt Q15116 21-170)
T30 construct: not shown: human IgG1 Fc, residues P101-K330

human PD-1 ECD-Fc P89A = target: T31, human PD-1 ECD-Fc P89A (human, UniProt Q15116 21-170)
T31 construct: not shown: human IgG1 Fc, residues P101-K330
T31 sequence (Q15116 21-170 P89A): as the sequence (Q15116 21-170 N102A) above, with P69A, A82N counted along it

human PD-1 ECD-Fc G90A = target: T32, human PD-1 ECD-Fc G90A (human, UniProt Q15116 21-170)
T32 construct: not shown: human IgG1 Fc, residues P101-K330

T1 sequence (Q15116 21-170 D92A): as the sequence (Q15116 21-170 N102A) above, with D72A, A82N counted along it

| KD mutant/KD wild-type (human PD-1 ECD-Fc D92A) [ratio] | KD mutant/KD wild-type (human PD-1 ECD-Fc P101A) [ratio] | KD mutant/KD wild-type (human PD-1 ECD-Fc N102A) [ratio] | KD mutant/KD wild-type (human PD-1 ECD-Fc G119A) [ratio] | KD mutant/KD wild-type (human PD-1 ECD-Fc L128A) [ratio] | KD mutant/KD wild-type (human PD-1 ECD-Fc P130A) [ratio] | KD mutant/KD wild-type (human PD-1 ECD-Fc A132G) [ratio] | KD mutant/KD wild-type (human PD-1 ECD-Fc Q133A) [ratio] | KD mutant/KD wild-type (human PD-1 ECD-Fc L138A) [ratio] | KD mutant/KD wild-type (human PD-1 ECD-Fc T145A) [ratio] | KD mutant/KD wild-type (human PD-1 ECD-Fc E150A) [ratio] | KD mutant/KD wild-type (human PD-1 ECD-Fc P152A) [ratio] | KD mutant/KD wild-type (human PD-1 ECD-Fc T153A) [ratio] | KD mutant/KD wild-type (human PD-1 ECD-Fc H155A) [ratio] | KD mutant/KD wild-type (human PD-1 ECD-Fc P28L) [ratio] | KD mutant/KD wild-type (human PD-1 ECD-Fc S157R) [ratio] | KD mutant/KD wild-type (human PD-1 ECD-Fc S27A) [ratio] | KD mutant/KD wild-type (human PD-1 ECD-Fc N33A) [ratio] | KD mutant/KD wild-type (human PD-1 ECD-Fc T36A) [ratio] | KD mutant/KD wild-type (human PD-1 ECD-Fc L42A) [ratio] | also measured | Binder |
| --- | --- | --- | --- | --- | --- | --- | --- | --- | --- | --- | --- | --- | --- | --- | --- | --- | --- | --- | --- | --- | --- |
| 1.2 | 1.1 | 1.5 | 1 | 17.1 | 105 | 53.4 | 0.7 | 1 | 1.1 | 1 | 1.4 | 0.9 | 1.1 | 1.9 | 1.6 | 0.8 | 1 | 1 | 1.3 | KD mutant/KD wild-type (human PD-1 ECD-Fc E136A): 0.8 ratio; KD mutant/KD wild-type (human PD-1 ECD-Fc N49A): 1.1 ratio; KD mutant/KD wild-type (human PD-1 ECD-Fc A50G): 1.4 ratio; KD mutant/KD wild-type (human PD-1 ECD-Fc T59A): 0.9 ratio; KD mutant/KD wild-type (human PD-1 ECD-Fc S60A): 1.8 ratio; KD mutant/KD wild-type (human PD-1 ECD-Fc E61A): 1.2 ratio; KD mutant/KD wild-type (human PD-1 ECD-Fc P72A): 1.1 ratio; KD mutant/KD wild-type (human PD-1 ECD-Fc T76A): 1.4 ratio; KD mutant/KD wild-type (human PD-1 ECD-Fc K78A): 2.6 ratio; KD mutant/KD wild-type (human PD-1 ECD-Fc D85A): 2.5 ratio; KD mutant/KD wild-type (human PD-1 ECD-Fc P89A): 1.1 ratio; KD mutant/KD wild-type (human PD-1 ECD-Fc G90A): 1 ratio | 12819.17149 Fab (Fab, V domains shown, monomeric Fab fragment) VH: EVQLLESGGGLVQPGGSLRLSCAASGFTFTRYDMVWVRQAPGKGLEWVAGIGDSNKMTRYAPAVKGRATISRDNSKNTLYLQMNSLRAEDTAVYYCAKGSCIACWDEAGRIDAWGQGTLVTVSS VL: SYELTQDPAVSVALGQTVRITCSGGGSYDGSSYYGWYQQKPGQAPVTVIYNNNNRPSDIPDRFSGSSSGNTASLTITGAQAEDEADYYCGSYDRPETNSDYVGMFGSGTKVTVL |
| 0.8 | 1 | 0.6 | 0.4 | 2.1 | 0.5 | 1.4 | 1.4 | 1.1 | 0.7 | 1 | 0.9 | 1 | 1 | 0.5 | 0.9 | 0.8 | 1.1 | 1 | 0.5 | binding result (human PD-1 ECD-Fc E136A): no binding (tested: 1 nM to 50 nM); KD mutant/KD wild-type (human PD-1 ECD-Fc N49A): 0.7 ratio; KD mutant/KD wild-type (human PD-1 ECD-Fc A50G): 0.6 ratio; KD mutant/KD wild-type (human PD-1 ECD-Fc T59A): 1 ratio; KD mutant/KD wild-type (human PD-1 ECD-Fc S60A): 0.6 ratio; KD mutant/KD wild-type (human PD-1 ECD-Fc E61A): 1.1 ratio; KD mutant/KD wild-type (human PD-1 ECD-Fc P72A): 1.8 ratio; KD mutant/KD wild-type (human PD-1 ECD-Fc T76A): 0.3 ratio; KD mutant/KD wild-type (human PD-1 ECD-Fc K78A): 0.7 ratio; KD mutant/KD wild-type (human PD-1 ECD-Fc D85A): 1.6 ratio; KD mutant/KD wild-type (human PD-1 ECD-Fc P89A): 0.9 ratio; KD mutant/KD wild-type (human PD-1 ECD-Fc G90A): 0.8 ratio | 12865.17150 Fab (Fab, V domains shown, monomeric Fab fragment) VH: EVQLLESGGGLVQPGGSLRLSCAASGFDFSDHGMQWVRQAPGKGLEYVGVIDTTGRYTYYAPAVKGRATISRDNSKNTLYLQMNSLRAEDTAVYYCAKTTCVGGYLCNTVGSIDAWGQGTLVTVSS VL: SYELTQDPAVSVALGQTVRITCSGGGSSSYYGWYQQKPGQAPVTVIYDDTNRPSGIPDRFSGSSSGNTASLTITGAQAEDEADYYCGGYEGSSHAGIFGSGTKVTVL |
| 0.9 | 0.9 | 0.7 | 1 | 0.9 | 0.9 | 1 | 0.9 | 1.2 | 82.4 | 1 | 1 | 1 | 1 | 0.7 | 1 | 1.1 | 1 | 0.9 | 2.2 | KD mutant/KD wild-type (human PD-1 ECD-Fc E136A): 1 ratio; KD mutant/KD wild-type (human PD-1 ECD-Fc N49A): 1 ratio; KD mutant/KD wild-type (human PD-1 ECD-Fc A50G): 1.7 ratio; KD mutant/KD wild-type (human PD-1 ECD-Fc T59A): 0.9 ratio; KD mutant/KD wild-type (human PD-1 ECD-Fc S60A): 1 ratio; KD mutant/KD wild-type (human PD-1 ECD-Fc E61A): 1 ratio; KD mutant/KD wild-type (human PD-1 ECD-Fc P72A): 1 ratio; KD mutant/KD wild-type (human PD-1 ECD-Fc T76A): 1.2 ratio; KD mutant/KD wild-type (human PD-1 ECD-Fc K78A): 1.1 ratio; KD mutant/KD wild-type (human PD-1 ECD-Fc D85A): 0.9 ratio; KD mutant/KD wild-type (human PD-1 ECD-Fc P89A): 0.9 ratio; KD mutant/KD wild-type (human PD-1 ECD-Fc G90A): 1 ratio | 13112.15380 Fab (Fab, V domains shown) VH: EVQLLESGGGLVQPGGSLRLSCAASGFTFSSYNMFWVRQAPGKGLEFVAEISGSNTGSRTWYAPAVKGRATISRDNSKNTLYLQMNSLRAEDTAVYYCAKSIYGGYCAGGYSCGVGLIDAWGQGTLVTVSS VL: SYELTQDPAVSVALGQTVRITCSGGSSDYYGWFQQKPGQAPVTVIYYNNKRPSDIPDRFSGSSSGNTASLTITGAQAEDEADYYCGNADSSVGVFGSGTKVTVL |
